The supplement of paper PMC7877785
± gives the uncertainty stated by the source.

Assay: self-splicing fitness, log relative to wild type (ln ratio); higher = more splicing; Tetrahymena group I intron in knt gene, E. coli kanamycin selection, DiMSum; sequences stand for … in CUCUCU…GGAGGGAAAAGUUAUCAGGCAUGCACCUGGUAGCUAGUCUUUAAACCAAUAGAUUGCAUCGGUUUAAAAGGCAAGACCGUCAAAUUGCGGGAAAGGGGUCAACAGCCGUUCAGUACCAAGUCUCAGGGGAAACUUUGAGAUGGCCUUGCAAAGGGUAUGGUAAUAAGCUGACGGACAUGGUCCUAACCACGCAGCCAAGUCCUAAGUCAACAGAUCUUCUGUUGAUAUGGAUGCAGUUCACAGACUAAAUGUCGGUCGGGGAAGAUGUAUUCUUCUCAUAAGAUAUAGUCGGACCUCUCCUUAAUGGGAGCUAGCGGAUGAAGUGAUGCAACACUGGAGCCGCUGGGAACUAAUUUGUAUGCGAAAGUAUAUUGAUUAGUUUUGGAGUACUCGUGGUCG
In short: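 A randomised library covering all eight P1ex-region intron nucleotides was built with the intron in the knt kanamycin-resistance gene on pET-22b(+) and held in E. coli BL21(DE3). Cells were grown overnight at 37°C or 30°C on LB agar, with or without 25 μg/mL kanamycin, plus 100 μg/mL carbenicillin, 50 μM IPTG and 0.2% rhamnose, and pooled colonies were amplicon-sequenced on an Illumina HiSeq 2500. DiMSum fitness is the error-weighted combination of wild-type-normalised replicate fold changes, kanamycin versus none.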

Row | Sequence | self-splicing fitness (ln) (30 °C) | self-splicing fitness (ln) (37 °C)
1 | GCCGAGCAAUAUUACGAGGC | -3.23 ± 0.35 | -2.3 ± 0.37
2 | GCCGAGCAAUAUUACGAUAA | -2.07 ± 0.21 | -2.08 ± 0.26
3 | GCCGAGCAAUAUUACGAUCU | – | -0.908 ± 0.4
4 | GCCGAGCAAUAUUACGAUUU | -2.04 ± 0.14 | -0.375 ± 0.14
5 | GCCGAGCAAUAUUACGCCAU | -2.88 ± 0.23 | -2.5 ± 0.38
6 | GCCGAGCAAUAUUACGCCGG | -3.21 ± 0.3 | -2.08 ± 0.38
7 | GCCGAGCAAUAUUACGCGAA | -1.84 ± 0.12 | -1.34 ± 0.17
8 | GCCGAGCAAUAUUACGCUCC | -0.576 ± 0.44 | –
9 | GCCGAGCAAUAUUACGCUUC | -2.53 ± 0.18 | -1.65 ± 0.25
10 | GCCGAGCAAUAUUACGGACG | -2.44 ± 0.18 | -0.841 ± 0.2
11 | GCCGAGCAAUAUUACGGCCU | -2.54 ± 0.42 | -1.56 ± 0.35
12 | GCCGAGCAAUAUUACGGCUC | – | -1.49 ± 0.46
13 | GCCGAGCAAUAUUACGGGAU | -2.03 ± 0.11 | -0.76 ± 0.13
14 | GCCGAGCAAUAUUACGGGUC | -3.68 ± 0.16 | -2.77 ± 0.11
15 | GCCGAGCAAUAUUACGUAAC | -2.89 ± 0.19 | -0.977 ± 0.2
16 | GCCGAGCAAUAUUACGUCUA | -3.15 ± 0.29 | -0.742 ± 0.15
17 | GCCGAGCAAUAUUACGUUAG | -3.58 ± 0.17 | -2.65 ± 0.19
18 | GCCUAGCAAUAUUACGACUC | -0.376 ± 0.14 | 0.0998 ± 0.17
19 | GCCUAGCAAUAUUACGAGAG | -3.76 ± 0.32 | -1.44 ± 0.12
20 | GCCUAGCAAUAUUACGAUGA | -2.48 ± 0.16 | -1.4 ± 0.14
21 | GCCUAGCAAUAUUACGCCGA | -0.66 ± 0.49 | –
22 | GCCUAGCAAUAUUACGCGCC | -2.42 ± 0.34 | -1.39 ± 0.31
23 | GCCUAGCAAUAUUACGCUGG | -2.92 ± 0.17 | -3.83 ± 0.42
24 | GCCUAGCAAUAUUACGGAAG | -2.96 ± 0.17 | -1.44 ± 0.17
25 | GCCUAGCAAUAUUACGGGAG | -0.724 ± 0.094 | -0.391 ± 0.094

Row | Sequence | self-splicing fitness (ln) (30 °C) | self-splicing fitness (ln) (37 °C)
26 | GCCUAGCAAUAUUACGUGAA | -0.836 ± 0.073 | 0.346 ± 0.077
27 | GCGAAGCAAUAUUACGACAC | -0.709 ± 0.21 | 0.892 ± 0.34
28 | GCGAAGCAAUAUUACGACUA | 0.115 ± 0.22 | -1.94 ± 0.2
29 | GCGAAGCAAUAUUACGAGUG | -1.09 ± 0.1 | -2.13 ± 0.12
30 | GCGAAGCAAUAUUACGAUAG | -2.35 ± 0.14 | -1.51 ± 0.17
31 | GCGAAGCAAUAUUACGAUUA | -1.52 ± 0.3 | -0.0699 ± 0.23
32 | GCGAAGCAAUAUUACGCCCC | -2.37 ± 0.46 | –
33 | GCGAAGCAAUAUUACGCGUG | -1.54 ± 0.12 | -1.7 ± 0.13
34 | GCGAAGCAAUAUUACGCUCG | -2.95 ± 0.29 | -2.12 ± 0.27
35 | GCGAAGCAAUAUUACGCUGA | -0.605 ± 0.24 | -1.5 ± 0.34
36 | GCGAAGCAAUAUUACGGAAA | -3.34 ± 0.36 | -1.57 ± 0.27
37 | GCGAAGCAAUAUUACGGCAU | -1.25 ± 0.099 | -0.00655 ± 0.089
38 | GCGAAGCAAUAUUACGGCCU | -1.4 ± 0.12 | 0.334 ± 0.16
39 | GCGAAGCAAUAUUACGGCUC | -1.78 ± 0.17 | -2.01 ± 0.25
40 | GCGAAGCAAUAUUACGGCUU | -2.39 ± 0.36 | –
41 | GCGAAGCAAUAUUACGGGUA | -3.04 ± 0.23 | -0.904 ± 0.17
42 | GCGAAGCAAUAUUACGGUAG | -4.07 ± 0.42 | -2.77 ± 0.26
43 | GCGAAGCAAUAUUACGGUCC | -3.6 ± 0.25 | -2.27 ± 0.31
44 | GCGAAGCAAUAUUACGGUGG | -4.24 ± 0.23 | -3.08 ± 0.27
45 | GCGAAGCAAUAUUACGUCCG | -1.24 ± 0.14 | -0.577 ± 0.2
46 | GCGAAGCAAUAUUACGUGAG | -1.89 ± 0.091 | -2.01 ± 0.1
47 | GCGAAGCAAUAUUACGUGCU | -2.63 ± 0.16 | -2.75 ± 0.2
48 | GCGAAGCAAUAUUACGUUUG | -2.87 ± 0.14 | -2.68 ± 0.23
49 | GCGCAGCAAUAUUACGACCU | 0.0686 ± 0.071 | 0.0313 ± 0.084
50 | GCGCAGCAAUAUUACGACUU | -0.0557 ± 0.087 | 0.099 ± 0.093

Row | Sequence | self-splicing fitness (ln) (30 °C) | self-splicing fitness (ln) (37 °C)
51 | GCGCAGCAAUAUUACGAGGA | -1.89 ± 0.3 | -0.618 ± 0.16
52 | GCGCAGCAAUAUUACGAGGC | -2.7 ± 0.35 | -1.29 ± 0.24
53 | GCGCAGCAAUAUUACGAGGG | -2.78 ± 0.09 | -1.84 ± 0.098
54 | GCGCAGCAAUAUUACGAGUC | -1.6 ± 0.13 | -1.36 ± 0.24
55 | GCGCAGCAAUAUUACGAUGA | -0.132 ± 0.099 | -0.33 ± 0.092
56 | GCGCAGCAAUAUUACGCACA | -1.5 ± 0.12 | -0.062 ± 0.11
57 | GCGCAGCAAUAUUACGCCCA | 0.169 ± 0.24 | -0.637 ± 0.33
58 | GCGCAGCAAUAUUACGCUAC | -1.82 ± 0.17 | -1.71 ± 0.3
59 | GCGCAGCAAUAUUACGGAAA | -1.97 ± 0.23 | -0.698 ± 0.2
60 | GCGCAGCAAUAUUACGGAUU | -0.79 ± 0.039 | -0.328 ± 0.056
61 | GCGCAGCAAUAUUACGGGCU | -3.6 ± 0.23 | -3.02 ± 0.27
62 | GCGCAGCAAUAUUACGGGGG | -2.2 ± 0.12 | -1.4 ± 0.12
63 | GCGCAGCAAUAUUACGGGGU | -2.94 ± 0.096 | -2.31 ± 0.13
64 | GCGCAGCAAUAUUACGGUAA | -1.55 ± 0.11 | 0.236 ± 0.11
65 | GCGCAGCAAUAUUACGGUUC | -0.737 ± 0.077 | 0.0559 ± 0.082
66 | GCGCAGCAAUAUUACGGUUU | -0.323 ± 0.048 | -0.167 ± 0.057
67 | GCGCAGCAAUAUUACGUCGA | -0.665 ± 0.09 | 0.801 ± 0.13
68 | GCGCAGCAAUAUUACGUGAA | 0.0716 ± 0.076 | 0.149 ± 0.074
69 | GCGCAGCAAUAUUACGUGAG | -0.213 ± 0.054 | 0.445 ± 0.082
70 | GCGCAGCAAUAUUACGUGCA | -2.09 ± 0.096 | -0.706 ± 0.08
71 | GCGGAGCAAUAUUACGACAU | -1.38 ± 0.016 | -0.573 ± 0.035
72 | GCGGAGCAAUAUUACGACCU | -0.927 ± 0.2 | -1.02 ± 0.19
73 | GCGGAGCAAUAUUACGAGUG | -2.86 ± 0.34 | -2.71 ± 0.48
74 | GCGGAGCAAUAUUACGCUAU | -3.16 ± 0.36 | -2.53 ± 0.49
75 | GCGGAGCAAUAUUACGCUGG | – | -2.1 ± 0.4

Row | Sequence | self-splicing fitness (ln) (30 °C) | self-splicing fitness (ln) (37 °C)
76 | GCGGAGCAAUAUUACGGCGU | -3.49 ± 0.33 | -2.08 ± 0.31
77 | GCGGAGCAAUAUUACGUCGG | -2.62 ± 0.12 | -1.78 ± 0.17
78 | GCGGAGCAAUAUUACGUUUC | -2.57 ± 0.39 | –
79 | GCGUAGCAAUAUUACGAACG | -2.48 ± 0.29 | -1.79 ± 0.27
80 | GCGUAGCAAUAUUACGAUAA | -0.962 ± 0.21 | -0.707 ± 0.24
81 | GCGUAGCAAUAUUACGAUUC | -0.141 ± 0.098 | -0.0224 ± 0.11
82 | GCGUAGCAAUAUUACGCACC | -4.01 ± 0.37 | -1.49 ± 0.34
83 | GCGUAGCAAUAUUACGCGAA | – | -1.31 ± 0.39
84 | GCGUAGCAAUAUUACGCGCU | -3.31 ± 0.2 | -2.84 ± 0.35
85 | GCGUAGCAAUAUUACGCGGC | -2.64 ± 0.27 | -2.08 ± 0.46
86 | GCGUAGCAAUAUUACGGCCG | -1.01 ± 0.16 | 0.509 ± 0.34
87 | GCGUAGCAAUAUUACGGCUA | -1.92 ± 0.26 | -0.79 ± 0.2
88 | GCGUAGCAAUAUUACGGUAG | -2.9 ± 0.28 | -2.03 ± 0.23
89 | GCGUAGCAAUAUUACGGUCA | -0.597 ± 0.081 | -0.142 ± 0.083
90 | GCGUAGCAAUAUUACGGUGU | -3.33 ± 0.21 | -1.48 ± 0.14
91 | GCGUAGCAAUAUUACGGUUC | -2.26 ± 0.14 | -0.643 ± 0.18
92 | GCGUAGCAAUAUUACGGUUG | -2.96 ± 0.13 | -1.75 ± 0.14
93 | GCGUAGCAAUAUUACGUAAC | -3.58 ± 0.27 | -0.0467 ± 0.15
94 | GCGUAGCAAUAUUACGUAGG | -3.73 ± 0.22 | -2.02 ± 0.19
95 | GCGUAGCAAUAUUACGUCGA | -2.69 ± 0.35 | -1.85 ± 0.32
96 | GCGUAGCAAUAUUACGUCGC | -2.62 ± 0.13 | -1.84 ± 0.21
97 | GCGUAGCAAUAUUACGUCUU | -3.15 ± 0.098 | -1.93 ± 0.1
98 | GCGUAGCAAUAUUACGUGUC | -3.83 ± 0.27 | -2.06 ± 0.14
